Data as given in the supplement of paper PMC12042874.
± gives the uncertainty stated by the source.

Test: amyloid nucleation score (Sup35N fusion, yeast selection) (log enrichment); library NNK3; higher = more nucleation; inactive = no reads after selection
In short: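 Nucleation score is defined as the DiMSum log enrichment of output over input reads, with centring on the mode score of non-aggregating sequences. A minimum of 100 input reads was required for each sequence. Reads came from Illumina sequencing of plasmid inserts from psi-negative yeast expressing Sup35N fused to peptides of 20 random codons, induced with 100 μM copper sulfate for 24 hours and grown 7 days at 30°C on medium lacking adenine and uracil.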

Substance	amyloid nucleation score
SLVAYLIEGIFNLWEALMDR	inactive
SLVLNSMMRTTNKNGNEGYV	inactive
SLVSYRLWIYDLWMTWL	inactive
SMACCGLSIAATNAPKVPKV	0.498 ± 0.34
SMATDAWGTTKF	inactive
SMATNCTDR	inactive
SMFTAIASTTFNLQSLYLM	inactive
SMGSPVNVIWTSSYS	inactive
SMHYAQYIIIYWRMSSRVYD	inactive
SMLAPCHELEHMGRCGECSN	inactive
SMLSAIMGSS	inactive
SMLSMLTLRSLSLTFMKRNQ	0.626 ± 0.32
SMQVQMTWLCDRSSLGQRNQ	1.6 ± 0.11
SMRQSFQWCYHSAECYVHSG	0.337 ± 0.31
SNASQLY	inactive
SNCRCIEGVFYHTYNQKAVR	inactive
SNFAMGVRLY	inactive
SNFVVSNPISSRGTMNIRII	inactive
SNHSRYYRNHDVFWYNIEVG	inactive
SNLFTGYGELFVPGS	inactive
SNQLNAN	inactive
SNRIYHVVFID	1.89 ± 0.1
SNRKPWARHIVDRACM	-0.922 ± 1.9

Substance	amyloid nucleation score
SNRYVCLAYYFSE	0.154 ± 0.49
SNTHLYCLMFRLPCRILDRK	inactive
SNVNTAWKRFTRI	inactive
SNVPYKDLQTLWCSHPVSVV	inactive
SNVTRMVRFFWVEGPTEYWY	inactive
SNYGTYRRNSPHSCLRTFWR	inactive
SPAQDQLAVRWVGVDRMMWW	-0.434 ± 0.86
SPDDVDYFFLVRNDRMCAYV	inactive
SPDGIGTMRGNFLGTPWRCR	inactive
SPFVCHEPLLRVVWSSTCSF	inactive
SPGYINGNGSSVRSVFNL	inactive
SPLTARMADRRDTA	-0.134 ± 1.4
SPLYGYGDKRQVRYLLTGSC	inactive
SPTLPGCLVLEIINDNI	inactive
SPWYVVFMCNLIFYKGEFTR	inactive
SQDGYDLHRSFRLLEVGSEL	inactive
SQITRMTPPVSIAADSRFVE	inactive
SQKFGALVFI	inactive
SQLRMFRVARVLIAEVNAP	inactive
SQNAQESIPMRKFITPSRVF	inactive
SQTIYGI	inactive
SQVDIMGKPADAFVPWFDGS	inactive
SRAAPRFRSIP	inactive

Substance	amyloid nucleation score
SRCPRMGYQHALRRWLLPVW	inactive
SRGVRIDKMVWNVIGFCHGW	2.8 ± 0.08
SRILRYVTLSEYWFQPIGLD	inactive
SRKLCSHR	-0.557 ± 0.66
SRKVRGYLLMTNFVCLSNYV	inactive
SRLCARMSSGKTIGYCNLFL	inactive
SRLEGIAGVKKGVMVNQKRL	inactive
SRLNFVLVSMQD	inactive
SRLWYSPGDYQVFKVRLHIW	inactive
SRNILRLKLIRLCSRKGIWW	inactive
SRQARCKPCVSCWDRCMWMI	inactive
SRRFFRWLSYTFGDGRGWLL	inactive
SRRSLNGIN	-0.05 ± 0.3
SRRSSS	1.28 ± 0.11
SRSSCRVIPT	inactive
SRSVDLLSLSRYIYLESRYD	inactive
SRSVTESLCLYT	inactive
SRTAKSFDATWMITFYGWGP	inactive
SRTGVC	-0.227 ± 1.5
SRVLTYDT	inactive
SRWATGWTTIISYMEPWFRA	inactive
SRYHLDFRYYSINKSLMSGV	inactive
SSASYVHCDFYIFGGLAPSN	2.8 ± 0.063

Substance	amyloid nucleation score
SSCTLVKAGLVNFLRARYSG	inactive
SSDFTSWDVREILGRAVVLC	inactive
SSDILASFGCYSNFHLSHII	inactive
SSDRLYFINGRMRNRFARFC	inactive
SSDSIKTWWKNTNVICVSGG	inactive
SSDSVNLIRYLYVRPRFPIH	inactive
SSECSMALIL	inactive
SSFDSAIEA	inactive
SSFGTQLYWNMSKCRFTRGT	1.16 ± 0.16
SSFLFVKLLIMNRLVQKIYA	inactive
SSGWNFPCSPSVMPDVVGVG	inactive
SSHLVWCYDANNHWADHK	inactive
SSKHC	inactive
SSLITFAPIPSLYWDCFSRF	inactive
SSLKWYTHPAMCYAHTWSIT	inactive
SSMICVQFGM	inactive
SSMLI	inactive
SSNDDFWIKGGQCEYIRFRL	inactive
SSPDCNYNECVPGACERRGF	inactive
SSQVET	inactive
SSSKNACDPC	inactive
SSSNTRFVGAERCVGSWCGS	inactive
SSSVTVYRFKGSTSSLGTNY	inactive

Substance	amyloid nucleation score
SSVMFVRIVLRIGGYHLAAR	inactive
SSVTCLLSSLRCIPRGVVFM	inactive
SSVVGMSGLG	inactive
SSVYCL	-0.781 ± 1.3
SSWDGLKRL	inactive
SSWPICMPASQNLLLNIGLG	inactive
SSYYFFCDGLIFELLSQDNS	inactive
STHGWGGWLSVYIGNP	inactive
STIAGPFLKFARSGTCPPVP	-0.776 ± 1.8
STLQRDIICKCIHAKVTVWV	inactive
STRILRLHITSMLDFRTTGA	inactive
STSSLASNYRDFSIR	inactive
STTIGF	inactive
STTMAFAAIVFEIYSVTSWF	inactive
STWRASIVPSFMVRGCWSIK	inactive
STWTWMPHKERHITLSKEFW	inactive
STYAPWSMHHFLDLYMSNRS	inactive
SVESACFTSSWVNHFFTFSN	inactive
SVESQGLWGCCILSKR	2.7 ± 0.06
SVFRSMSTSILVFSPVHYCE	inactive
SVGGEWRS	1.34 ± 0.14
SVGVWKYFDLWAAGFLSSSG	inactive
SVIASRSLIYD	inactive

Substance	amyloid nucleation score
SVLFLTRIEEVGVRYMFKDC	inactive
SVLLHLNRNVMWTMPSRGAF	inactive
SVMSLDVVMVVRYFY	0.999 ± 0.12
SVNFSYASAIPHAQMIQVRV	inactive
SVNLFVLMYLFII	1.9 ± 0.061
SVQFFPDCCQGELTTNTVRS	inactive
SVRTSAYYKFQRTERVSMCM	inactive
SVSHAE	inactive
SVTLRLVFRCP	1.05 ± 0.15
SVYDNYSLGNRYWERTFWLS	inactive
SVYGIYGSNYMNTFVVVLVG	inactive
SVYYTPCAFFRLIEGNLEGL	inactive
SWCWYMCSGLNIEIAKGLTR	inactive
SWDFAYLYELIYFRFMFQGC	inactive
SWFPP	inactive
SWFVHKFSIRYNLFDFSYIF	inactive
SWKARDYRGSVLGSIIRDFN	inactive
SWQNWGRGGCSGLFVSRWVT	inactive
SWRDILVKRHS	inactive
SWRRWSPCLIEVWHMFSLVT	inactive
SWVHGERLMHDCQTLLLYSW	inactive
SWVNDRQNFPASLLYRDYLL	inactive
SWYAKGFI	inactive

Substance	amyloid nucleation score
SWYGQLLCVTVVRYHCAPCG	inactive
SYCDSNRGVDLV	-0.611 ± 0.75
SYDGWCVTYFDV	inactive
SYDMTLHG	0.436 ± 0.18
SYFGDYLKIYFFYTQHNLSC	inactive
SYFGRLIQSLTRQWTTVARS	inactive
SYFTMTDSSFSVAFANLLVY	0.289 ± 0.78
SYFWILRAWS	inactive
SYGALLNGYGGKSSAPIRWS	inactive
SYGDPCQAKGQIRIVYGWHW	0.308 ± 0.25
SYGPRPYTHHSPHAAGMTLE	inactive
SYHYHATILSWTYYVTVYFL	inactive
SYLPEFRCVVRFKFFQDKLL	inactive
SYLRQDDVEMAVIWTGHMSV	inactive
SYMQAWVTNCMSVFSVVMKQ	inactive
SYMVSLRIVLFFDYR	inactive
SYNFRDCYQCLRDKVDKICA	inactive
SYNFVNQYVWKEDRNTKVAI	inactive
SYPGQLRSPVSV	inactive
SYRHCNWDAKKVAIGTVVWD	inactive
